For data set [1], the target named is T1, Cin5 (Saccharomyces cerevisiae) (UniProt P40917).
T1 sequence: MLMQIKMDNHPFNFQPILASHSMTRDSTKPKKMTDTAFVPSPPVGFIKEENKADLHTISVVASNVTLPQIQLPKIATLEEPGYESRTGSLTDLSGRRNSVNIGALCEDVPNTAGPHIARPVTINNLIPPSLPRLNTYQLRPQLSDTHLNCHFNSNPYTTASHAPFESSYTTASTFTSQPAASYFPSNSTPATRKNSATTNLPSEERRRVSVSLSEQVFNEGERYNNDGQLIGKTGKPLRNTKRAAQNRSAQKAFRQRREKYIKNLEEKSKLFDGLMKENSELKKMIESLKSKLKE
The note with it: 100 nM.

Data set [2] addresses T2, Yap3 (Saccharomyces cerevisiae) (UniProt P38749).
T2 sequence: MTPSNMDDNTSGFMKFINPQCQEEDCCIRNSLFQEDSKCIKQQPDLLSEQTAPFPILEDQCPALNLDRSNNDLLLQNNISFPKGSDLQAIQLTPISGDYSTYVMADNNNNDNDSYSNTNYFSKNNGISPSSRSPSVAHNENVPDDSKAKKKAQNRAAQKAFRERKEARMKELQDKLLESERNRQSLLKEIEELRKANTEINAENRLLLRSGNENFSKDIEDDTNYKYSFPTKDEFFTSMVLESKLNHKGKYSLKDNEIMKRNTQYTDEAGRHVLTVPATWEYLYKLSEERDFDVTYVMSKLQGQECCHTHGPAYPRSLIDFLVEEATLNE
The settings on record: 100 nM.

Data set [3] has as its target T3, Sut1 (Saccharomyces cerevisiae) (UniProt P53032).
T3 sequence: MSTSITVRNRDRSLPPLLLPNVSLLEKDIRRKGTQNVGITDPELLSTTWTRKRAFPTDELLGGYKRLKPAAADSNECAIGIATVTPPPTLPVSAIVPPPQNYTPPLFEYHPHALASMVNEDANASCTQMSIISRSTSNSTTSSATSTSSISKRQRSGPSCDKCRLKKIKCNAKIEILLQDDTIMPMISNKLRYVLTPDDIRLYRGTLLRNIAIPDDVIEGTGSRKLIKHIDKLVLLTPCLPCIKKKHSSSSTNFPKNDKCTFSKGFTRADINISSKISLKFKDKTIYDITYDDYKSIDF
The note with it: 200 nM.

The target of data set [4] is T4, Yer184c (Saccharomyces cerevisiae) (UniProt P39961).
T4 sequence: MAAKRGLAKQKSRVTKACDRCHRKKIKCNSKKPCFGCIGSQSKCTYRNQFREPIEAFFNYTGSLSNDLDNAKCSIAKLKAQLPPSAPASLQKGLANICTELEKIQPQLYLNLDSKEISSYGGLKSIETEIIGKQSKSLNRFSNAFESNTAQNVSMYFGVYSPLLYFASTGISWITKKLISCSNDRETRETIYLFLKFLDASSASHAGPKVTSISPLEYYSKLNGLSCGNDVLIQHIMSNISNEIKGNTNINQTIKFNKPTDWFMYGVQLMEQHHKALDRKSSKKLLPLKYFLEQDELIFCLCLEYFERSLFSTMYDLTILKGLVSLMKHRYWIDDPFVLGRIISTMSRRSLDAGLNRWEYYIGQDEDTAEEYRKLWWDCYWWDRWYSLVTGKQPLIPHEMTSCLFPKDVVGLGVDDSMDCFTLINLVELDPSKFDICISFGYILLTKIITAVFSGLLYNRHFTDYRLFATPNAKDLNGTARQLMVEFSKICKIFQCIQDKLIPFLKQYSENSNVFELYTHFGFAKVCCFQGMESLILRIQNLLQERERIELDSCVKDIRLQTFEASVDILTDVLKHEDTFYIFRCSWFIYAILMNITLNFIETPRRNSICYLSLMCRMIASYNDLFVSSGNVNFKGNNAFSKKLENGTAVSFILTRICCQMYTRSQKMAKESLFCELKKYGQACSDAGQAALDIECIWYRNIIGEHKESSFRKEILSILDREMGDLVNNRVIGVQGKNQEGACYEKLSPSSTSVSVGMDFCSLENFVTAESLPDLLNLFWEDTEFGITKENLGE
The settings on record: 100 nM.

In data set [5] the target is T5, Cad1 (Saccharomyces cerevisiae) (UniProt P24813).
T5 sequence: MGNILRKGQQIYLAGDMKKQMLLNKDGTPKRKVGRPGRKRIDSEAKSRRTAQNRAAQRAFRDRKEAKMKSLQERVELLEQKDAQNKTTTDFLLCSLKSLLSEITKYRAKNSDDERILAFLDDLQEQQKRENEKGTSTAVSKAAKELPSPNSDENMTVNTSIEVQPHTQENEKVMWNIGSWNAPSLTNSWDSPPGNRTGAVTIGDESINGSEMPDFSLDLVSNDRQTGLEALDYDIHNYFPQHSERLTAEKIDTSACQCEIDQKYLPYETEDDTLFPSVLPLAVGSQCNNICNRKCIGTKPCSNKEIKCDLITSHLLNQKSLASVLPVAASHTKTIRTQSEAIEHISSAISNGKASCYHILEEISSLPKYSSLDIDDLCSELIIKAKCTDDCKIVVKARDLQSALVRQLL
The note with it: 100 nM.

In data set [6] the target is T6, Sko1 (Saccharomyces cerevisiae) (UniProt Q02100).
T6 sequence: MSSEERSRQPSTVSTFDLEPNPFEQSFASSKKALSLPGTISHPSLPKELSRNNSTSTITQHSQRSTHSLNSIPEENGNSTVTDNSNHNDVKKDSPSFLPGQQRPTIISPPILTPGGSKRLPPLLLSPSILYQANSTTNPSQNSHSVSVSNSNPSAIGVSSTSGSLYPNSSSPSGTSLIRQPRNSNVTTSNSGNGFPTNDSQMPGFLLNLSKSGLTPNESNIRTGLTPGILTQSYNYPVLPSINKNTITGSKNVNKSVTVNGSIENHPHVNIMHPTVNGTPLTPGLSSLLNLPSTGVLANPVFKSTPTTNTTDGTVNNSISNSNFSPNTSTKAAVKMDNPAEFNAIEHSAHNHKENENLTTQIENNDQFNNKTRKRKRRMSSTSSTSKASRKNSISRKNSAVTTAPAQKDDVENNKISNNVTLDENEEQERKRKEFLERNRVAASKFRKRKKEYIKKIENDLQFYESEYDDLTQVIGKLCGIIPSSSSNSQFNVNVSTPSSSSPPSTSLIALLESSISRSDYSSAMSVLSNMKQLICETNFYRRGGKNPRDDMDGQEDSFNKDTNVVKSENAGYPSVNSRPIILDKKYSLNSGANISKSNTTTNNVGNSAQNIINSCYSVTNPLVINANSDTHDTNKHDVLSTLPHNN
The settings on record: 200 nM.

The target of data set [7] is T7, Pdr3 (Saccharomyces cerevisiae) (UniProt P33200).
T7 sequence: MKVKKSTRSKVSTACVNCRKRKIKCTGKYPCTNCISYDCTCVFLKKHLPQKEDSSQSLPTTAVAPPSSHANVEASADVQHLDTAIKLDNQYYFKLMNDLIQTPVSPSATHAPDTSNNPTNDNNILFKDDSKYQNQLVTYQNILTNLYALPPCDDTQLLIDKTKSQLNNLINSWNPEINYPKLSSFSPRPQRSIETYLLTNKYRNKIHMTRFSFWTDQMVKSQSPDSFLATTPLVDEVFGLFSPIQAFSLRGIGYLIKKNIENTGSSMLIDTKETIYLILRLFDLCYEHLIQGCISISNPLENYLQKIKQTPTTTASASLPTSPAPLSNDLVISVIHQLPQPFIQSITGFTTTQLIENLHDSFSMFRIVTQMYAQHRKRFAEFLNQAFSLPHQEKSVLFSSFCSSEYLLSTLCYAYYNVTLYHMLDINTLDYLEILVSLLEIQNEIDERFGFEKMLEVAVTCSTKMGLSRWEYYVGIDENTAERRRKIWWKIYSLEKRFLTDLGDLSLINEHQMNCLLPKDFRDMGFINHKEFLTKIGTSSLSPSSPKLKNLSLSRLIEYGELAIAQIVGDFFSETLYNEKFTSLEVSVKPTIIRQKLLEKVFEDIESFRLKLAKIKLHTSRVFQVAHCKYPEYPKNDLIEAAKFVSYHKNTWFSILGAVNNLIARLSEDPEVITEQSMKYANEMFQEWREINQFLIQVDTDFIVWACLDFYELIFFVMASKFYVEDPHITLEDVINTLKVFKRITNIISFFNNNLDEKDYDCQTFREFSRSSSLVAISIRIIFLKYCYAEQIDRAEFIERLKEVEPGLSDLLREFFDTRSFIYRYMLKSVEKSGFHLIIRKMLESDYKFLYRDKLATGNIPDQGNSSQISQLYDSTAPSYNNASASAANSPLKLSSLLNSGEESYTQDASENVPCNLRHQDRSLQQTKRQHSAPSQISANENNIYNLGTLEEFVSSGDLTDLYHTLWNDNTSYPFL
The settings on record: 200 nM.

As for “ACGTAATC (double strand) [8-mer ACGTAATC]”, the binding signal (PBM E-score (-0.5 to 0.5)) in data set [1] came out at 0.496; in data set [2], 0.462.
Take “ACTCCGGA (double strand) [8-mer ACTCCGGA]”: the binding signal (PBM E-score (-0.5 to 0.5)) came out at 0.495 in data set [3] and 0.459 in data set [4].
The sequence “ATTAATAA (double strand) [8-mer ATTAATAA]” had a binding signal (PBM E-score (-0.5 to 0.5)) in data set [5] of 0.46.
Consider “ATTACGTA (double strand) [8-mer ATTACGTA]”, for which the binding signal (PBM E-score (-0.5 to 0.5)) worked out at 0.49 in data set [1], 0.478 in data set [2] and 0.497 in data set [6].
Turning to “ATTACTAA (double strand) [8-mer ATTACTAA]”, the binding signal (PBM E-score (-0.5 to 0.5)) was found to be 0.479 in data set [2] and 0.492 in data set [5].
Turning to “ATTAGTAA (double strand) [8-mer ATTAGTAA]”, the values for the binding signal (PBM E-score (-0.5 to 0.5)) in data set [2] and in data set [5] were 0.487 and 0.49, respectively.
For “ATTAGTCA (double strand) [8-mer ATTAGTCA]”, the binding signal (PBM E-score (-0.5 to 0.5)) in data set [5] came to 0.491.
In data set [5], “ATTTGTCA (double strand) [8-mer ATTTGTCA]” gave a binding signal (PBM E-score (-0.5 to 0.5)) of 0.465.
In turn, “CCGGAAAA (double strand) [8-mer CCGGAAAA]” gave a binding signal (PBM E-score (-0.5 to 0.5)) in data set [4] of 0.46.
On the same count and under the same terms, the same measure for “CCGGCCGG (double strand) [8-mer CCGGCCGG]”: 0.486; for “CGCCGGCG (double strand) [8-mer CGCCGGCG]”: 0.485.
The sequence “CTGACTAA (double strand) [8-mer CTGACTAA]” came in with a binding signal (PBM E-score (-0.5 to 0.5)) in data set [5] of 0.488.
With “CTTACTAA (double strand) [8-mer CTTACTAA]”, the binding signal (PBM E-score (-0.5 to 0.5)) in data set [5] came to 0.484.
“CTTAGTAA (double strand) [8-mer CTTAGTAA]”: the binding signal (PBM E-score (-0.5 to 0.5)) in data set [5] is 0.471.
“GCCGCGGC (double strand) [8-mer GCCGCGGC]” had a binding signal (PBM E-score (-0.5 to 0.5)) in data set [4] of 0.475.
In turn, “GTCCGGAC (double strand) [8-mer GTCCGGAC]” showed a binding signal (PBM E-score (-0.5 to 0.5)) in data set [4] of 0.464.
Sequence “TATCCGGA (double strand) [8-mer TATCCGGA]” yielded a binding signal (PBM E-score (-0.5 to 0.5)) in data set [4] of 0.454.
On to “TCCGCGGA (double strand) [8-mer TCCGCGGA]”, for which the results for the binding signal (PBM E-score (-0.5 to 0.5)) in data set [7] and in data set [4] were 0.5 and 0.481, respectively.
Turning to “TCGGCCGA (double strand) [8-mer TCGGCCGA]”, the binding signal (PBM E-score (-0.5 to 0.5)) in data set [4] was determined as 0.473.
In the case of “TTACGTAA (double strand) [8-mer TTACGTAA]”, the binding signal (PBM E-score (-0.5 to 0.5)) is 0.497 in data set [1], 0.496 in data set [2], 0.48 in data set [5] and 0.496 in data set [6].
Consider “TTCCGGAA (double strand) [8-mer TTCCGGAA]”, for which the binding signal (PBM E-score (-0.5 to 0.5)) in data set [7] is 0.492; in data set [4], 0.467.

The values are drawn from paper PMC3334620.
